Experimental data taken from US20190083587A1 (Novo Nordisk, published 2019).

T1: human fibrinogen (human, UniProt P02671 20-629; P02675 31-491; P02679 27-437, limits assumed)
T1 construct: the chain composition (two each of alpha, beta, gamma) is from general knowledge; also called HCI-0150R Haematologic technologies
T1 sequence (looked up) 1: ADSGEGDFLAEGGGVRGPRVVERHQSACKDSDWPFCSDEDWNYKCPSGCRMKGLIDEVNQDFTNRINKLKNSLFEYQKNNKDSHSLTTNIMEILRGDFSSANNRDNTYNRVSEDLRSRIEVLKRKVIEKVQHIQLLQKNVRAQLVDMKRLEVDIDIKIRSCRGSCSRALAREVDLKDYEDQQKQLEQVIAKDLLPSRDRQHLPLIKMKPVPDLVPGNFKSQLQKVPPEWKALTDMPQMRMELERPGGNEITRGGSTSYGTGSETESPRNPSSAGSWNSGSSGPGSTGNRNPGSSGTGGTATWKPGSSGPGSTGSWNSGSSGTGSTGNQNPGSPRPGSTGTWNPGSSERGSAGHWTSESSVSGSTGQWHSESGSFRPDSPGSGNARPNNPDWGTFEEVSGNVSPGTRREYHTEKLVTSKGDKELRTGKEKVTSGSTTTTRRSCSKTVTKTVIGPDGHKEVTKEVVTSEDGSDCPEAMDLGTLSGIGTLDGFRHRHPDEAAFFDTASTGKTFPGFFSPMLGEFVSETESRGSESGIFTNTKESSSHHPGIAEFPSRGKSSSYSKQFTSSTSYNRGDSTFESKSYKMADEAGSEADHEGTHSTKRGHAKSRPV
T1 sequence (looked up) 2: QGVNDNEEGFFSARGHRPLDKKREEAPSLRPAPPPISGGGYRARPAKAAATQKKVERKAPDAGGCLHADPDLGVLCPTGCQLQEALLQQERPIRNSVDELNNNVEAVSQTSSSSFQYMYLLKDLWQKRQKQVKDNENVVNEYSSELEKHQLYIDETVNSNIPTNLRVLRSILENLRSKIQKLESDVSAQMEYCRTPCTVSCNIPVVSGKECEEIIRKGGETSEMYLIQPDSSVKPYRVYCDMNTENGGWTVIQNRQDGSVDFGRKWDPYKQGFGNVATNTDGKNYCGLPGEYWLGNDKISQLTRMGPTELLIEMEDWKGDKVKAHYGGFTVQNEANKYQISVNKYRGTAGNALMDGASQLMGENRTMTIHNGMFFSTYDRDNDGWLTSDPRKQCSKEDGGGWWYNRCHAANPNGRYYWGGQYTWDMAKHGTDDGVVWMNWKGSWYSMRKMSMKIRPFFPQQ
T1 sequence (looked up) 3: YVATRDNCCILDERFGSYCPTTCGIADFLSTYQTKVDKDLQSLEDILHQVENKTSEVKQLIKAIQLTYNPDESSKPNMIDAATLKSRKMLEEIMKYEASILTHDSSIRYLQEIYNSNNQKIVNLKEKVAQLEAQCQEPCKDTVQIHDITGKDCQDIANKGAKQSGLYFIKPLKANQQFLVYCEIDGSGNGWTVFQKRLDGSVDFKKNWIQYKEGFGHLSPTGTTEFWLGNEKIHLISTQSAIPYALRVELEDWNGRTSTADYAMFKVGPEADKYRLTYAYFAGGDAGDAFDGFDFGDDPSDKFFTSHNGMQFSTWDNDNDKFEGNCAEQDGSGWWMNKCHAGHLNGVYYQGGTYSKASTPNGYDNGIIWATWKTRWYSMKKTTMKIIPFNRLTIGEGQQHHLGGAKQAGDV

B1: hTLT-1 ECD-His (receptor)
chain: QGIVGSLPEVLQAPVGSSILVQCHYRLQDVKAQKVWCRFLPEGCQPLVSSAVDRRAPAGRRTFLTDLGGGLLQVEMVTLQEEDAGEYGCMVDGARGPQILHRVSLNILPPEEEEETHKIGSLAENAFSDPAGSANPLEPSQDEKSIPHHHHHH
notes: Extracellular domain of human TLT-1 with C-terminal His-6 tag; the range 16-168 is computed from these; also called TLT-1-His; His tagged human TLT1

Legend:
hTLT-1 ECD-His = biological target: B1; assay: SPR Biacore, TLT-1-His captured via anti-His mAb, Fab as analyte
Experimental: Method: The mAbs of interest were either immobilized directly to a CM5 chip or by capture via a human Fc capture mAb immobilized to a CM5 chip, while TLT-1-His was immobilized by capture via an anti-His mAb CM5 chip for analysis of Fabs.
TLT-1-His capture via anti-His mAb (R&D #MAB050): The anti-His mAb was immobilised to approx 9.000 RU. The TLT-1-His was added to a level of approx 30-40 RU (10 μg/ml diluted in 10 mM Hepes, 150 mM NaCl, 3 mM EDTA, 0.005% Tween-20) using the standard procedure recommended by the supplier. 8-fold dilutions of Fabs from 3 to 0.047 μg/ml were tested for binding to the TLT-1-His. Running and dilution buffer: 10 mM Hepes, 150 mM NaCl, 3 mM EDTA, 0.005% Tween-20. Regeneration was obtained by 3 M MgCl₂.

FVIIa-Fab1001 = biological target: T2, FVIIa-Fab1001 (human, UniProt P08709 61-466, linker attached as sialic acid derivative to an N-linked glycan (ST3Gal-III); gamma-carboxylated Glu in the Gla domain; unpaired hinge Cys (YGPPC) coupled by maleimide to the 3 kDa PEG linker); assay: SPR Biacore T200, His-tagged TLT-1 captured via anti 6xHis mAb, analyte 29.29-0.45 nM, 25 C
T2 construct: FVIIa is the two-chain form; also called conjugate of anti TLT-1-FAB fragment (Fab0084) to FVIIa via a 3 kDa PEG linker
T2 sequence (P08709 61-466 limits assumed): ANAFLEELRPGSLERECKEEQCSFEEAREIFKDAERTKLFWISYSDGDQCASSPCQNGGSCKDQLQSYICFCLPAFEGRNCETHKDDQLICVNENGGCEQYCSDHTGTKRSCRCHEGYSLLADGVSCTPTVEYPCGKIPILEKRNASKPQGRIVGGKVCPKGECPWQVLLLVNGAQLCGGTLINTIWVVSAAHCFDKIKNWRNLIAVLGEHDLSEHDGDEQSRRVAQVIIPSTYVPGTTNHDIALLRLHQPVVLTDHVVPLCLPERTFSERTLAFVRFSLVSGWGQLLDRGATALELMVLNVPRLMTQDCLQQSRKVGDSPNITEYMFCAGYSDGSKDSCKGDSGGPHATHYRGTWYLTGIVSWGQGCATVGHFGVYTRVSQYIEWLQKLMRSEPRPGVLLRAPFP
Experimental: Method: An anti 6×his antibody was immobilised to a level of approx 9000 RU on a CM5 chip (0.5 mg/ml diluted in Na-acetate, pH 5.0) using the standard procedure recommended by the supplier. Human his-tagged TLT-1 in a concentration of 100 ng/ml was used as ligand. FVIIa-Fab1001 in two-fold dilutions from 29.29 nM to 0.45 nM was used as analytes. The running and dilution buffer was made from: 10 mM HEPES, 150 mM NaCl, 3 mM EDTA, 0.005% p20, pH 7.4. Regeneration was obtained by 3 M MgCl₂. The experiment was run at 25 degree Celsius. Determination of kinetic and binding constants (kₒₙ, koff, KD) was obtained assuming a 1:1 interaction of TLT1 and FVIIa-Fab1001 using the Biacore T200 evaluation software (Table 19).

human fibrinogen = biological target: T1, human fibrinogen; assay: SPR Biacore T100, TLT-1 immobilised on CM5, fibrinogen 200-0.2 nM as analyte
Experimental: Human TLT-1 was immobilised to a level of approx 1000 RU on a CM5 chip (50 μg/ml diluted in Na-acetate, pH 4.0) using the standard procedure recommended by the supplier. Four-fold dilutions of human fibrinogen from 200 nM to 0.2 nM were tested for binding to the immobilized TLT-1. Running and dilution buffer: 10 mM HEPES, 150 mM, 0.005% p20, pH 7.4. Regeneration was obtained by 10 mM Glycine, pH 1.7.
Determination of kinetic and binding constants (kₒₙ, koff, KD) was obtained assuming a 1:1 interaction of TLT-1 and fibrinogen using the Biacore T100 evaluation software (Table 11).

FVIIa-Fab1029 = biological target: T3, FVIIa-Fab1029 (human, UniProt P08709 61-466, linker attached as sialic acid derivative to an N-linked glycan (ST3Gal-III); gamma-carboxylated Glu in the Gla domain; unpaired hinge Cys (YGPPC) coupled by maleimide to the 10 kDa PEG linker); assay: SPR Biacore T100, TLT-1 immobilised on CM5, analyte 20-0.3 nM
T3 construct: FVIIa is the two-chain form cleaved between Arg152 and Ile153; also called conjugate of anti TLT-1-FAB fragment (Fab0084) to FVIIa, 10 kDa PEG linker
T3 sequence (P08709 61-466 limits assumed): as above
Experimental: TLT-1 was immobilized directly to a CM5 chip to a level of approx 2000 RU (50 ug/ml diluted in Na-acetate, pH 4.0) using the standard procedure recommended by the supplier and reagents provided in Table 16. Two-fold dilutions of FVIIa-Fab1029 and FIX-Fab0135 from 20 nM to 0.3 nM were tested for binding to TLT-1. Running and dilution buffer: 10 mM HEPES, 150 mM, 0.005% p20, pH 7.4. Regeneration was obtained by 10 mM Glycine, pH 1.7. Determination of kinetic and binding constants (kₒₙ, koff, KD) was obtained assuming a 1:1 interaction of TLT-1 and FVIIa-Fab1029 or FIX-Fab0135 using the Biacore T100 evaluation software.

Kd (hTLT-1 ECD-His) [nM]	koff (hTLT-1 ECD-His) [s⁻¹]	kon (hTLT-1 ECD-His) [M⁻¹ s⁻¹]	Kd (FVIIa-Fab1001) [nM]	koff (FVIIa-Fab1001) [s⁻¹]	kon (FVIIa-Fab1001) [M⁻¹ s⁻¹]	Kd (human fibrinogen) [nM]	koff (human fibrinogen) [s⁻¹]	kon (human fibrinogen) [M⁻¹ s⁻¹]	Kd (FVIIa-Fab1029) [nM]	koff (FVIIa-Fab1029) [s⁻¹]	kon (FVIIa-Fab1029) [M⁻¹ s⁻¹]	Binder
5.2	0.00279	536000	–	–	–	–	–	–	–	–	–	Fab0003 (Fab, VH-CH1 (human IgG4) with partial hinge YGPPC; light chain with HPC4 tag; Entries may include signal peptides; also called antiTLT-1 0003Fab-YGPPC; (0052LC-HPC4)) heavy: QVQLQQSGAEPMKPGASVKISCKATGYTFSSHWIEWIKQRPGHGLEWIGEILPGSGNTNYNEKFKGKATFTADTSSNTAYMQLSSLTSEDSAVYYCARGYYGLNYDWYFDVWGAGTTVTVSSASTKGPSVFPLAPCSRSTSESTAALGCLVKDYFPEPVTVSWNSGALTSGVHTFPAVLQSSGLYSLSSVVTVPSSSLGTKTYTCNVDHKPSNTKVDKRVESKYGPPC light: DIQMTQTTSSLSASLGDRVTISCRASQDISNYLNWYQQKPDGTVKLLIFYTSRLHSGVPSRFSGSGSGTDYSLTISNLEPEDIATYYCQQDTKLPYTFGGGTKLEMKRTVAAPSVFIFPPSDEQLKSGTASVVCLLNNFYPREAKVQWKVDNALQSGNSQESVTEQDSKDSTYSLSSTLTLSKADYEKHKVYACEVTHQGLSSPVTKSFNRGECEDQVDPRLIDGK
2.38	0.00798	3.35e+06	–	–	–	–	–	–	–	–	–	Fab0074 (Fab, VH-CH1 (human IgG4) with partial hinge YGPPC (one free Cys); light chain with HPC4 tag; Entries may include signal peptides; also called antiTLT-1 0074Fab-YGPPC; (0051LC-HPC4)) heavy: QVQLEQSGAELVRPGVSVKISCKGSGYTFTDYSMHWVKQSHAKSLEWIGVISTYYGDVRYNQKFKGKATMTVDKSSSTAYMALARLTSEDSAIYYCARAPMITTGAWFAYWGQGTLVTVSAASTKGPSVFPLAPCSRSTSESTAALGCLVKDYFPEPVTVSWNSGALTSGVHTFPAVLQSSGLYSLSSVVTVPSSSLGTKTYTCNVDHKPSNTKVDKRVESKYGPPC light: SIVMTQTPKFLLVSAGDRVTITCKASQSVSNDVAWYQQKPGQSPKLLINYASSRYTGIPDRFTGSGYGTDFTFTISTVQAEDLAVYFCQQDYSSPYTFGGGTKLEIERTVAAPSVFIFPPSDEQLKSGTASVVCLLNNFYPREAKVQWKVDNALQSGNSQESVTEQDSKDSTYSLSSTLTLSKADYEKHKVYACEVTHQGLSSPVTKSFNRGECEDQVDPRLIDGK
1.7	0.00195	1.15e+06	–	–	–	–	–	–	–	–	–	Fab0004 (Fab, VH-CH1 (human IgG4) with partial hinge YGPPC; light chain with HPC4 tag; Entries may include signal peptides; also called antiTLT-1 0004Fab-YGPPC; (0023LC-HPC4)) heavy: EVRLVESGGGLVQPGGSLKLSCATSGFTFSDYFMYWIRQTPEKRLEWVAYISNGGDSSSYPDTVKGRFTISRDNAKNTLYLQMSRLKSEDTAMYYCATNKNWDDYYDMDYWGQGTSVTVSSASTKGPSVFPLAPCSRSTSESTAALGCLVKDYFPEPVTVSWNSGALTSGVHTFPAVLQSSGLYSLSSVVTVPSSSLGTKTYTCNVDHKPSNTKVDKRVESKYGPPC light: DIVVSQSPSSLAVSAGEKVTMSCKSSQSLLNSRTRKNYLAWYQQKPGQSPKLLIYWASTRESGVPDRFTGSGSGTDFTLTISSVQAEDLAVYYCKQSYNLLTFGAGTKLELKRTVAAPSVFIFPPSDEQLKSGTASVVCLLNNFYPREAKVQWKVDNALQSGNSQESVTEQDSKDSTYSLSSTLTLSKADYEKHKVYACEVTHQGLSSPVTKSFNRGECEDQVDPRLIDGK
–	–	–	3.99	0.00319	801000	94	0.000392	4170	18.3	0.00726	397000	B1
0.99	0.00524	5.31e+06	–	–	–	–	–	–	–	–	–	Fab0084 (Fab, VH-CH1 (human IgG4) with partial hinge YGPPC (one free Cys); light chain with HPC4 tag; the ends of the ranges are computed; also called antiTLT-1 0084Fab-YGPPC; (0012VH.T60N-CH1-YGPPC)) heavy: EVKLLESGGGLVQPGGSLKLSCAASGFDFSRYWMTWVRQAPGKGLEWIGEINPDSSTINYNPSLKDKFIISRDNAKNTLYLQMSEVRSEDTALYYCASGVFTSWGQGTLVTVSAASTKGPSVFPLAPCSRSTSESTAALGCLVKDYFPEPVTVSWNSGALTSGVHTFPAVLQSSGLYSLSSVVTVPSSSLGTKTYTCNVDHKPSNTKVDKRVESKYGPPC light: DVVMTQTPLSLPVSLGDQASISCRSSQSLVHRNGNTYFHWALQKPGQSPKLLIYKVSNRFSGVPDRFSGSGSGTDFTLKISRVEAEDLGVYFCSQSTHVPYTFGGGTKLEIKRTVAAPSVFIFPPSDEQLKSGTASVVCLLNNFYPREAKVQWKVDNALQSGNSQESVTEQDSKDSTYSLSSTLTLSKADYEKHKVYACEVTHQGLSSPVTKSFNRGECEDQVDPRLIDGK
